IC50 and Ki data for three substances are collected here from PMC5431086, “The Rational Design of Therapeutic Peptides for Aminopeptidase N using a Substrate-Based Approach” (Scientific Reports, 2017).

In this assay the target is recombinant human aminopeptidase N (hAPN) (human) (UniProt P15144). In words: enzyme inhibition assay (competition with the fluorogenic substrate H-Ala-AMC); 0.1 μM APN, 100 μM H-Ala-AMC, 100 mM Tris pH 7.2, Brij 35 0.0002% w/v, 37 °C, triplicate; inhibition competitive, Ki from the IC50 by the Cheng-Prusoff equation.

The term IC50 denotes the concentration that gives 50% inhibition. As usually defined, the Ki is a dissociation constant, usually derived from enzyme kinetics or from competition with a known ligand.

Regarding nDQIY (peptide), the IC50 was more than 500 µM.

Take nHSPW (peptide): the IC50 came to 6.5 µM.

Regarding cyc-nHSPW (peptide), the Ki was more than 500 µM.
